Laboratory results as given in publication PMC13061610.

Target: Dob3 (Nocardia ninae)
Experiment: SEC; Superdex 200, 20 mM HEPES pH 8.0, 10 mM MgCl2, 50 mM NaCl, 10% glycerol; compared with Bio-Rad gel filtration standards

stoichiometry N: 2
Substance: Dob3 (enzyme)
